According to US20230002798A1, “PROCESS FOR THE PREPARATION OF A FERMENTABLE SUGAR COMPOSITION AND THE FERMENTATION THEREOF” (WeissBioTech GmbH, priority 2019, published 2023):

B1: Gth: oligo-1,6-glucosidase of Parageobacillus thermoglucosidasius, amino acid sequence SEQ ID NO:2, expressed in Bacillus subtilis (protein, listed as Parageobacillus thermoglucosidasius)
chain: MERVWWKEAVVYQIYPRSFYDSNGDGIGDIRGIIAKLDYLKELGVDVVWLSPVYKSPNDDNGYDISDYRDIMDEFGTMADWKTMLEEMHKRGIKLVMDLVVNHTSDEHPWFIESRKSKDNPYRDYYIWRPGKNGKEPNNWESVFSGSAWEYDEMTGEYYLHLFSKKQPDLNWENPKVRREVYEMMKFWLDKGVDGFRMDVINMISKVPELPDGEPQSGKKYASGSRYYMNGPRVHEFLQEMNREVLSKYDIMTVGETPGVTPKEGILYTDPSRRELNMVFQFEHMDLDSGPGGKWDIRPWSLADLKKTMTKWQKELEGKGWNSLYLNNHDQPRAVSRFGDDGKYRVESAKMLATFLHMMQGTPYIYQGEEIGMTNVRFPSIEDYRDIETLNMYKERVEEYGEDPQEVMEKIYYKGRDNARTPMQWDDSENAGFTAGTPWIPVNPNYKEINVKAALEDPNSVFHYYKKLIQLRKQHDIIVYGTYDLILEDDPYIYAYTRTLGNEQLIVITNFSEKTPVFRLPDHIIYKTKELLISNYDVDEAEELKEIRLRPWEARVYKIRLP
modifications: WP_042386239.1 alpha-glucosidase
B2: Agl1: oligo-1,6-glucosidase of Bifidobacterium breve UCC2003, amino acid sequence SEQ ID NO:1, expressed in Bacillus subtilis (protein)
chain: MMTTFNRAIIPDAIRTNGATPNPWWSNAVVYQIYPRSFQDTNGDGFGDLKGITSRLDYLADLGVDVLWLSPVYKSPQDDNGYDISDYQDIDPLFGTLDDMDELLAEAHKRGLKVVMDLVVNHTSDEHAWFEASKNKDDEHADWYWWRPARPGTTPGEPGSEPNQWGSYFGGSAWEYCPERGEYYLHQFSKKQPDLNWENPAVRRAVYDMMNWWLDRGIDGFRMDVITLISKRTDANGRLPGEYGSELDDLPVGEEGYSNPNPFCADGPRQDEFLKEMRREVFAGREGFLTVGEAPGITPVRNEHITNPANGELDMLFLFDHVDFDCDGVKWKPLPLDLPGFKRIMAGYQTAVENVGWASLFTGNHDQPRVVSRWGDDSSEESRVRSAKALGLMLHMHRGTPYVYQGEELGMTNAHFTSLDQYRDLESLNAYRQRVEEAKVQSPESMLAGIAARGRDNSRTPMQWDGSAYAGFTAPDAATEPWISVNPNHAEINAAGEFDDPDSVYAFYKKLIALRHNSSIVAAGEWQLIDADDAHVYAFTRTLGNERLLVVVNLSGRTVDLPRESTELIAGGVTEPDIILSTYDAPHTVVSLANRELDPWEAAAVQL
modifications: Bifidobacterium breve UCC2003; ACM89182.1 alpha-glucosidase 1

What was measured:
[1] = SSF of maltodextrins with added panose, 24 h (Example 1); parameters: species or system Yeast (Deltaferm® AL-18); conditions: SSF 24 h; for panose concentration reduced by: 20 g/L panose added; for ethanol concentration increase by % compared to the negative control / ethanol concentration increase compared to the negative control: 300 g/L maltodextrin + 20 g/L panose, enzyme 187.5 kU per ton; for ethanol concentration increase compared to the negative control: glucoamylase 40 g/t, 30° C., pH 4.8
Method: (§1) Quantification of ethanol yield Ethanol was quantified via HPLC. Samples were taken at the end of the SSF or during SSF at set time points. Samples were centrifuged for 1 min at 17,000 xg and sterile filtered (0.2 μm). The samples were frozen at −80° C. prior to measurements. Ethanol was determined with an Aminex 87C column (Bio-Rad Laboratories, Inc., US) on a Shimadzu HPLC system.
(§2) Residual sugars were quantified via HPLC. Samples were taken at the end of the SSF or during SSF at set time points. Samples were centrifuged for 1 min at 17 000 xg and sterile filtered (0.2 μm). The samples were frozen at −80° C. prior to measurements. Residual sugars were determined with a Zorbax NH2 column (Agilent Technologies, Inc., US) on an Agilent 1200 HPLC system.
(§3) For simultaneous saccharification and fermentation (abbreviated SSF), the oligo-1,6-glucosidases—either Agl1 or Gth—were used as crude Bacillus extract. Glucidex® Maltodextrin 12 (Roquette, FR) was dissolved in SSF-medium (5 g/L yeast extract, 5 g/L peptone, 1 g/L K2HIPO4, 0.5 g/L Mg2SO4 in 50 mM citrate buffer, pH 4.8) at 300 g/L. Panose, isomaltose, isomaltotriose, maltose, maltotriose, or trehalose was added at 20 g/L. As a positive control, 20 g/L glucose was added instead of the respective sugar. The SSF medium containing starch hydrolysate (maltodextrins) and sugars was sterile filtered (0.2 μm). Yeast (Deltaferm® AL-18, WeissBioTech GmbH, Ascheberg, Germany) was grown in YINaC medium (50 g/L dextrose, 5 g/L yeast extract, 5 g/L peptone, 1 g/L K2HPO4, 0.5 g/L Mg2SO4*7H2O, 2 g/L NH4Cl in 50 mM sodium citrate, pH 4.8) for 2 days at 37° C. and harvested by centrifugation for 15 min at 5100 rpm and 8° C. Pelleted yeast was added to the SSF-medium at a final concentration of 6 g/L. Glucoamylase (Deltazym® GA L-E5, WeissBioTech GmbH, Ascheberg, Germany) was added at 40 g per ton of dry starch equivalent. The enzyme product Agl1 or Gth was added up to a final concentration of 187.5 kU per ton of dry starch equivalent. For the SSF with trehalose, Agl1 or Gth was added at 937.5 kU per ton of dry starch equivalent. As a negative control, an SSF as described above was run without oligo-1,6-glucosidase/enzyme product. The SSF was performed at 30° C. without stirring or shaking for 24 h.

[2] = SSF of maltodextrins with added maltose, 24 h (Example 1); parameters: species or system Yeast (Deltaferm® AL-18); conditions: SSF 24 h, maltodextrin + 20 g/L maltose, enzyme 187.5 kU per ton
Method: as §1, §3

[3] = SSF of commercial liquefied starch with added alpha-amylase, panose content (Example 4); parameters: species or system Yeast (Deltaferm® AL-18); conditions: for reduction in panose compared to control / panose detected: after 60 h SSF; for panose detected: liquefied starch with glucoamylase and alpha-amylase, enzyme 187.5 kU per ton; for panose after 72 h: after 72 h SSF
Method: as §2
(§4) For SSF, the enzyme product was used as crude Bacillus extract. Acidified liquefied starch from a commercial plant, containing no detectable amounts of panose, isomaltose, isomaltotriose or trehalose, was brought to pH 4.8. SSF medium components (5 g/L yeast extract, 5 g/L peptone, 1 g/L K2HPO4, 0.5 g/L Mg2SO4 in 50 mM citrate buffer, pH 4.8) were added to liquefied starch (300 g/L). The SSF medium containing starch was sterile filtered (0.2 μm). Yeast (Deltaferm® AL-18, WeissBioTech GmbH, Ascheberg, Germany) was grown in YINaC medium (50 g/L dextrose, 5 g/L yeast extract, 5 g/L peptone, 1 g/L K2HIPO4, 0.5 g/L Mg2SO4*7H2O, 2 g/L NH4Cl in 50 mM sodium citrate, pH 4.8) for 2 days at 37° C. and harvested by centrifugation for 15 min at 5100 rpm and 8° C. Pelleted yeast was added to the SSF at a final concentration of 6 g/L. Glucoamylase (Deltazym® GA L-E10, WeissBioTech GmbH, Ascheberg, Germany) was added at 200 g per ton of dry starch equivalent. Alpha-amylase (Fuelzyme®, BASF) was added at 200 g per ton of dry starch equivalent to simulate non-complete removal of alpha-amylase in industrial processes, which is often the cause for increased non-fermentable sugars. The enzyme product Agl1 or Gth was added to a final concentration of 187.5 kU per ton of dry starch equivalent. As control, no oligo-1,6-glucosidase/enzyme product was added. The SSF was performed at 30° C. without stirring or shaking for 72 h.

[4] = SSF of commercial liquefied starch, 72 h (Example 3); parameters: species or system Yeast (Deltaferm® AL-18); conditions: SSF 72 h, commercial liquefied starch 300 g/L, glucoamylase 200 g/t, enzyme 187.5 kU per ton
Method: as §1, §2
Liquefied starch was analysed prior to use on a Zorbax NH2 column (Agilent Technologies, Inc., US) for analysis of mono-, di- and trisaccharide type and content, and on an Aminex 42A column (Bio-Rad Laboratories, Inc., US) for analysis of degree of polymerisation (DP) detecting DP1-DP6 content. IPLC was performed on a Shimadzu IPLC system.
as §4, with “liquefied starch (pH 2.0) from a” for “liquefied starch from a”, “1 g/L K2HIPO4, 0.5 g/L” for “1 g/L K2HPO4, 0.5 g/L”, “1 g/L K2HPO4, 0.5 g/L” for “1 g/L K2HIPO4, 0.5 g/L”, “starch equivalent. The enzyme” for “starch equivalent. Alpha-amylase (Fuelzyme®, BASF) was added at 200 g per ton of dry starch equivalent to simulate non-complete removal of alpha-amylase in industrial processes, which is often the cause for increased non-fermentable sugars. The enzyme”

[5] = Process stability (SSF medium without starch, pH 4.8, 30° C., 72 h); type: physicochemical; conditions: after 72 h at 30° C., pH 4.8, SSF medium without starch
Method: Process stability was determined by incubating the enzymes under process conditions (SSF medium without starch, pH 4.8, 30° C.) for 72 h and measuring the remaining activity.

Row | Molecule | panose concentration reduced by [1] [%] | ethanol concentration increase by % compared to the negative control [1] [%] | ethanol concentration increase compared to the negative control [1] | ethanol concentration increase by % compared to the negative control [2] [%] | ethanol concentration increase compared to the negative control [2] | reduction in panose compared to control [3] [%] | panose detected [3] [g/L] | panose after 72 h [3] | ethanol concentration increase by % compared to the negative control [4] [%] | ethanol concentration increase compared to the negative control [4] | process stability (remaining activity) [5] [%]
1 | B1 | 96 | 85 | 0.94 percentage points (v/v) | 2.8 | 0.06 percentage points (v/v) | 57 | 2.3 | completely hydrolysed | 4 | 0.47 percentage points (v/v) | 80
2 | B2 | 96 | 92 | 1.01 percentage points (v/v) | 1.5 | 0.03 percentage points (v/v) | 50 | 2.7 | completely hydrolysed | 2 | 0.30 percentage points (v/v) | 80
